# Data: the nanobody polyreactivity screen of Harvey et al. (2022)
# Experiment: yeast display, Sf9 membrane polyspecificity reagent, FACS + sequencing; frameworks hold sequencing errors
# How it was run: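 Galactose induction of a Saccharomyces cerevisiae BJ5465 synthetic nanobody display library ran 36–48 hours. The cells were then stained for 1 hour at 4 °C with 10% biotinylated, detergent-solubilized Sf9 membrane reagent, pulled down on streptavidin microbeads and FACS-sorted into low and high (top ~1%) gates on expression and reagent-binding fluorescence. Labels for polyreactivity follow the gate of origin.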
sequence,measurement,value
QVQLVQSGGGLVQAGGSLRLISAASGSIFRYNAMGWYRHAPGKEREFVAAITRSGGSTYADSVKGRFTISRDNAKNTLYLQIHSLKPEDTAVYYCAATFKWYSHSKPRFDYWGHGTQVTVSS,polyreactivity (PSR sort gate),low polyreactivity
QVQLVQSGGGLVQAGGSLRLSCAASGFIIWDNAMGCYRQAPGKERELVAAISDSGGDTYYADSVKGRFTISRDNAKNTVYLQMNSLKPEDTAVYYCASDVELWVFRGDQYDYWGQGTQVTVSS,polyreactivity (PSR sort gate),low polyreactivity
QVQLVQSGGGLVQAGGSLRLSCAASGGTFQHNTMGWYRQAPGKEWQLVAAIRGSDGSTYYADSVKGRFTISRDNAKNTVYLQMNSLKPEDTAVYYCNRAYTASYIPGVGFWGQGTQVTVSS,polyreactivity (PSR sort gate),high polyreactivity
QVQLVQSGGGLVQAGGSLRLSCAASGITFWGNAMGSYRQAPGKEREFIARINWSGGRTYYAESVKGRFTISRDNEKNNVYLQMNSLKPEDTAVYYCAATSLIYGYRTYDYWGQGTQVTVSS,polyreactivity (PSR sort gate),high polyreactivity
QVQLVQSGGGLVQAGGSLRLSCAASGRIFGSYAMGWSRQAPGKERELGAAISYSGGSTYYADSVKGRFTMSRDNAKNTVYLQMHSLKPEDTAVYYCNVDRYYGYFSVRGGYWGQGTQGTVSS,polyreactivity (PSR sort gate),low polyreactivity
QVQLVQSGGGLVQAGGSLRLSCAASGRIFRPNAMGWYRQAPGKERELVAAISSGGSTYYADSVKGRFTISRDNAKNTVYFQMYSLKPEDTAVDYCAADRSNRPYYRQGYDYWGQGTQVTVSS,polyreactivity (PSR sort gate),high polyreactivity
QVQLVQSGGGLVQAGGSLRLSCAASGRIIGWYAMGWYRQAPGKERELVAAITWSGTSTYYADSVKGRFTISRDNAKNTVYLQMNSLKPEDTAVYYCAADSLPASAPTYYTTLESWGQGTQVTVSS,polyreactivity (PSR sort gate),low polyreactivity
QVQLVQSGGGLVQAGGSLRLSCAASGSTNRYYAMGLYRQAPGKERELVAAITKSGGSTYYADSVKGRFTISRDNAKNTVYLQMNSLKPEDTAVVYCAAVRGWYSPALSEHDYWGQGTQVTVSS,polyreactivity (PSR sort gate),low polyreactivity
QVQLVQSGGGLVQAGGSLRLSCADSGGTFRVYAMGSYRQAPGKERQLVASISWSSGITYYADSVKGRFTISRDNAKNTVYLQMNSLKPEDTAVYYCAAEGHVTYGAPGRLYRMGYWGQGTQVTVSS,polyreactivity (PSR sort gate),low polyreactivity
QVQLVQSGGGLVQAGGSLSLSCAASGSTFARNTMGWYRQAPGKERELVAAISYSGVTTYYADSVKGRFPISRDNEKNTVYLQMNSLKPEDTAVYYCAKLPYRRVDYGYWGQGTQVTVSS,polyreactivity (PSR sort gate),high polyreactivity
QVQLVQSGGGLVQAGGSLSLSCAASGSTFSTYAMGWYRQAPGKERELVATISKSGGSTYYSDSVKGRFTISRDNAKNTVYLQMNSLKPEDTAVYYCNARYQSRYFIYDYWGQGTQVTVSS,polyreactivity (PSR sort gate),high polyreactivity
QVQLVQSGGGLVQAGGTLRLTCAASGSTYAVYAMGWYRQAPGKERELVATIRGRGGSTYYADSVKGRFTISRDYAKNTVYLQMNSLKPEDTAVYYCAADSYPSLGKYDSWGQGTQVTVSS,polyreactivity (PSR sort gate),high polyreactivity
QVQLVQSGGGLVQERGSLRLSCAASGRIFVKYTMGWSRQAPGKERELVAAIDFDTDSTYYADSVTGRFTISRDNAKNTVYLQMYSLKPEDTAVYYCATGYLYFTSYRYNYWGQGTQVTVSS,polyreactivity (PSR sort gate),low polyreactivity
QVQLVQSRGGLVQAGGSLRLSCAASGRTFVYNAMGWYRPAPGKERELVAAIDGGGDRTYYADSVKGRFTISRDNAKNTVYLQMNSLKPEDTAVYYCARDPGDTYYYSYPEGDYWGLGTQVTVSS,polyreactivity (PSR sort gate),low polyreactivity
QVQLVVSGGGLVQAGGSLRLSCAASGRIFVINAMGWYRQAPGNERELVAAITWIGGTTYYADSVKGRFTISRDNAKNTVYLQLNSLKREDTAVYYCARQRSYGRSSYSYGYDYWGQGTQVTVSS,polyreactivity (PSR sort gate),high polyreactivity
QVQLVVSGGGLVQAGGSLRLSCAASGRTFPGNAMGGYRQAPGKERELVASINGRTTRTYYADSVKGRFTISRDNAKNTVYLQMNSLKPEDTAVYYCAADPPGYVYGKRYYWGQGTQVTVSS,polyreactivity (PSR sort gate),high polyreactivity
QVQLVVSGGGLVQAGGSLRLSCAASGRTFYANAMGWYRQAPGKERELVAAISTGGDGTYYADSVKGRFTISRDNAKNTVYLQMNSLKPEDTADYYCAVRHRASGILYDYWGQGTQVTVSS,polyreactivity (PSR sort gate),low polyreactivity
QVQLVVSGGGLVQAGGSLRLSCAASGSIFYFNAMGWYRQAPGKERELVASITSGGSTNYADSVKGRFTISRDNAKTTVYLQLISLKPEDTAVYYFNAYTWGVGSSLDDVGYWGQGTQVTGSS,polyreactivity (PSR sort gate),low polyreactivity
QVQLVVSGGGLVQAGGSLRLSCAASGSMLYKYAMGWYRQPPGKEREFVAAISSSGGITYYADSVKGRFTISRDNAKNTVYLQMNSLKPEDTAVYYCAARTRSQFGHGYWGQGTQVTVSS,polyreactivity (PSR sort gate),high polyreactivity
QVQLVVSGGGLVQAGGSLRLSCAASGSTFQYNAMGWYRQAPGKERELVAAISTGTSTYYADSVKGRFTISRDNAKNTVYLQLNSLKTEVTAVYYCAAEYWGDYTEYNYWGHGTQVTVSS,polyreactivity (PSR sort gate),high polyreactivity
QVQLVVSGGGLVQAGGSLSLSWAASGRIFSSYAMGWYRQAPGKERELDAAIDRTDSTYYADSVKGRFTISRDNAKNTVYLQMNSLIPEDTAVYYCAVLTYRYQSWGNYYLEYDYWGQGTEVTVSS,polyreactivity (PSR sort gate),low polyreactivity
QVQLVVSGGGLVQPGGSLRLSCAASGRTFPYYAMGWYIQAPGKERELVARITGSGTSTNYADSVKGRFTISRDKSKNTVYLKMNSLKPEDTAVYYCAAPKYGSYYIADYEYWGQGTHVTVSS,polyreactivity (PSR sort gate),low polyreactivity
QVQLVYSGGGLVQAGGSLRLSCAASGSLFYHNAMGWYRQAAGKEMELDADISWSGGSTYYADSVKGRFTISRDYAKNTVYLQMNSLKPEDTAVYYGNTDARYDEYDEFDYWGQGTQVTVSS,polyreactivity (PSR sort gate),low polyreactivity
QVQLVYTLGGLDQAGGSLRVSCYASGRTFVYYPMGWYRQAPGKERELVAAITRSGGRTYYADSVKGRFTISRDNAKNTVYLQKYSMKPEETAVYYCAARYCDNPYWFDYWGQGTQVTVSS,polyreactivity (PSR sort gate),high polyreactivity
QVQMQERAAWCRRAGSLRLSCAASGNITDYYFMSWYRQAPGKERELVAAIAPGSNTYYADSVKGRFTISRDNAKNTVYLQMNSLKPEDTAVCFCAANSTQYTWFDYWGQGTQVPVSS,polyreactivity (PSR sort gate),low polyreactivity
QVQPVESGGGLVQAGGSLRLSCAASGLTFYRYAMGWYRQAPGKERELVAAISSGSSTYYADSVKGRFTISRDNSKNTVYLQLNILKPEDTAVYYCAARSIDAHGSRYGYWGQGTQVTVSS,polyreactivity (PSR sort gate),high polyreactivity
QVQQQESGGGLVQAGGSLRLSCAASGTIFQLTVMGRYRQAPGKERELVASIDYGGNTNYADSVKGRFTISRDNAKNTVYLQMNSLKPEDTAVYYCAASSDSWTTHPYWGQGTQGTVSS,polyreactivity (PSR sort gate),low polyreactivity
QVQQQESGGGRCSGRRTTPGLRGERHYFSLLHGLVSPGAGQEREFVAAIAVRSTYYADSAKGRFTINRDNAKYTVYLQMNSLKPEDTSVYSCAAYYSYYGGDYWGQGTQVTVSS,polyreactivity (PSR sort gate),low polyreactivity
QVQREESGGGLVQAGGSLRLSCAASGSTFDGNSMGWYTQAPGKERELVAAIRKSGGRTYYADSVKGRFTISRDNAKNTVYLQMNSLKPDDTAVYYCAAYERGFTYRRYYWGQGTQVTVSS,polyreactivity (PSR sort gate),high polyreactivity
QVQRLESGGGLVQAGGSLRLSCAASGGTIDWNAMGWYRQAPGKETEFVAAITSSGGSTYYADSVKGRFTISRDNAKNSVYLQMTSLKPEDTAVYECAADFWYYQYPYGGGGYWGQGTQVTVSS,polyreactivity (PSR sort gate),low polyreactivity
QVQRVDSGGGLVQAGGSLRLSCDPSGRTHDVNAMGWYRQAPWKERQLVAAISYSGGITYYADSVKGRFTISRDNAKNTVYLQMNSLKPEDTAVYYCAVVGGYPSYTVDYWGQGSQVTVSS,polyreactivity (PSR sort gate),low polyreactivity
QVQRVECGGGLVLAGGSLRLSCAASGRILVFYAMGWYRQARGKVRELVATITDTGRTNYADSVKGRCTISRDNAKKTDSLQMTSQKPEDTAVYYCAKQRDYGFPWATYDYWGQGTQGTVSS,polyreactivity (PSR sort gate),low polyreactivity
QVQRVESAGCLVQAGVSLRLSCPPSRRIFSRYAIGWYRQAPGKERELVAAISWSGGSTYYADSVKGRFTISRDNAMNTVYLQLIILKPEDTAVYYCAARRSYSYGSWGQGTQVTVSS,polyreactivity (PSR sort gate),high polyreactivity
QVQRVESGGGIVQAGGSLRLTCAASGITFVSYTIGWSRQAPGKEREFVAAITWNVASTYYADSVKGRFTISRDNAKNTVYLQMNSLKPEDTAVYYCAAYSRFTSDYWGQGTQVTVSS,polyreactivity (PSR sort gate),high polyreactivity
QVQRVESGGGLGQAGGILLLSCAASGFTFKWYSMGWYRQARGKERELVAGISRRGGTTNYADSFKGRFTISRHNAKNTVNLQINSLKPEDPPVYYCAAESQLTKYYYWGQGTQVTVSS,polyreactivity (PSR sort gate),high polyreactivity
QVQRVESGGGLLQAGGSLSLSCAASGSIFEWYAMGWYRQEPGTERELVAAIRSGGTTNYADSVKGRFTISRDHAKNTVYLQMNSLKPEVTAVYDCAAKSVTGLFRYYYWGQGTQVTVTS,polyreactivity (PSR sort gate),low polyreactivity
QVQRVESGGGLVQAGGILSLSCAASGSIFPWYAMGWYIQAPANERELVAAITISGGSTHYADSVKGRFTISRDNAKNSVYLEMNSLIPEDTAVYYCSTPRYPSYEYWGLGTQVTVSS,polyreactivity (PSR sort gate),low polyreactivity
QVQRVESGGGLVQAGGRLRLSCAASGFTFFHYAMGRYRQAPGKERELVAAISWSGGTTYYADSVKGRFTISRDNAKNTVYLQMNCLKPEDTAVYYFAADGGLGWRWLPLGYRYGFDYWGQGTQVTVSS,polyreactivity (PSR sort gate),low polyreactivity
QVQRVESGGGLVQAGGRLRLSCAASGRTFDNYAMGWYIQAPGKERELVSAISGGGGTNYADSVKGRFTISPDNAKNTVYLQMNSLKPEDTAVYYCAADTNGYEFDYWGQGTQVTVSS,polyreactivity (PSR sort gate),low polyreactivity
QVQRVESGGGLVQAGGRLRLSCAASGSISVAKAMGWYRQAPGKERELVAAITDSGDDTYYADSVKGRFTISRDNAKNTVYLQMNSLKPEDTAVYYCAAGLRLDLGAMYYWGQGTQVTVSS,polyreactivity (PSR sort gate),low polyreactivity
QVQRVESGGGLVQAGGSLRISCAASGSTFITYAMGWYRQERGKERELVAASRWSGGGTYYADSVKGRFTISRDNAKNTVYVQMNSLKPEDTAVYYCAADHFNYTTGRDYWGQGTQVTVSS,polyreactivity (PSR sort gate),low polyreactivity
QVQRVESGGGLVQAGGSLRLRCAASGRTFGYYAMGWYRHAPGKERVLVAAINSRGGSTYYADPVKGRFTISRDNAKNTVYLQMNSLKPEDTAVYYCAKRWCSYGSYSLYDYWGQGTQVTVSS,polyreactivity (PSR sort gate),high polyreactivity
QVQRVESGGGLVQAGGSLRLSCAASGFIFDGYAMGWYRQAPGKERELVAAIDSGGDRTYYADSVKGRFTISRDNAKNTVYLLMNSLKPEDTAVYYCAADSSDPTGYEYGGQGTQVTVSS,polyreactivity (PSR sort gate),low polyreactivity
